From US20230340114A1 (IMMUNE ONC THERAPEUTICS, published 2023)
Changes are numbered by the printed parent chain.

Key:
[1] = target: T1, human LILRB4 expressed on cells (human, UniProt Q8NHJ6 22-448); test: FACS, CHO-K1 cells stably expressing human LILRB4; H7K3 in formulation buffer after 2 weeks at 40°C
T1 construct: whole, on cells; also called ILT3; CD85k
Protocol: (§1) EC50 FACS: Stable CHO-K1 cells expressing either human LILRB4 or flag-tagged cynomolgus monkey LILRB4 were used to determine binding capacity of stability samples of H7K3 antibody. CHO-K1 cells (1×10⁵) were stained with serially titrated stability samples followed by secondary staining with fluorescent-conjugated anti-human IgG (Biolegend). Geometric mean fluorescence (MFI) was measured and EC₅₀ were calculated by Prism.
(§2) The inventors then assessed the stability of the antibody H7K3 at 40° C. in PBS or a formulation buffer, the results of which are summarized in the Tables 2 and 3.

[2] = target: T2, flag-tagged cynomolgus monkey LILRB4 expressed on CHO-K1 cells (cynomolgus monkey); test: FACS, CHO-K1 cells stably expressing flag-tagged cyno LILRB4; H7K3 reference row of the formulation buffer stability table
T2 construct: whole, on cells; also called cyno LILRB4
Protocol: as §1

[3] = target: T1, human LILRB4 expressed on cells; test: FACS, CHO-K1 cells stably expressing human LILRB4; H7K3 in formulation buffer, T0
Protocol: as §1

[4] = target: T1, human LILRB4 expressed on cells; test: FACS, CHO-K1 cells stably expressing human LILRB4; H7K3 in formulation buffer after 4 weeks at 40°C
Protocol: as §1, §2

[5] = target: T1, human LILRB4 expressed on cells; test: FACS, CHO-K1 cells stably expressing human LILRB4; H7K3 in PBS, T0
Protocol: as §1, §2

[6] = target: T2, flag-tagged cynomolgus monkey LILRB4 …; test: FACS, CHO-K1 cells stably expressing flag-tagged cyno LILRB4; H7K3 in formulation buffer after 4 weeks at 40°C
Protocol: as §1, §2

[7] = target: T2, flag-tagged cynomolgus monkey LILRB4 …; test: FACS, CHO-K1 cells stably expressing flag-tagged cyno LILRB4; H7K3 reference row of the PBS stability table
Protocol: as §1

[8] = target: T1, human LILRB4 expressed on cells; test: FACS, CHO-K1 cells stably expressing human LILRB4; H7K3 in PBS after 4 weeks at 40°C
Protocol: as §1, §2

[9] = target: T2, flag-tagged cynomolgus monkey LILRB4 …; test: FACS, CHO-stable cells expressing cyno LILRB4
[10] = target: T1, human LILRB4 expressed on cells; test: FACS, CHO-stable cells expressing human LILRB4
[11] = target: T1, human LILRB4 expressed on cells; test: FACS, CHO-K1 cells stably expressing human LILRB4; H7K3 reference row of the PBS stability table
Protocol: as §1, §2

[12] = target: T1, human LILRB4 expressed on cells; test: FACS, CHO-K1 cells stably expressing human LILRB4; H7K3 in PBS after 2 weeks at 40°C
Protocol: as §1, §2

[13] = target: T2, flag-tagged cynomolgus monkey LILRB4 …; test: FACS, CHO-K1 cells stably expressing flag-tagged cyno LILRB4; H7K3 in formulation buffer after 2 weeks at 40°C
Protocol: as §1, §2

[14] = target: T1, human LILRB4 expressed on cells; test: FACS, CHO-K1 cells stably expressing human LILRB4; H7K3 reference row of the formulation buffer stability table; H7K3 reference row of Table 3 (formulation buffer), not a T0 or 40° C. sample
Protocol: as §1

[15] = target: T2, flag-tagged cynomolgus monkey LILRB4 …; test: FACS, CHO-K1 cells stably expressing flag-tagged cyno LILRB4; H7K3 in formulation buffer, T0
Protocol: as §1, §2

[16] = target: T2, flag-tagged cynomolgus monkey LILRB4 …; test: FACS, CHO-K1 cells stably expressing flag-tagged cyno LILRB4; H7K3 in PBS, T0
Protocol: as §1, §2

[17] = target: T2, flag-tagged cynomolgus monkey LILRB4 …; test: FACS, CHO-K1 cells stably expressing flag-tagged cyno LILRB4; H7K3 in PBS after 4 weeks at 40°C
Protocol: as §1, §2

[18] = target: T2, flag-tagged cynomolgus monkey LILRB4 …; test: FACS, CHO-K1 cells stably expressing flag-tagged cyno LILRB4; H7K3 in PBS after 2 weeks at 40°C
Protocol: as §1, §2

[19] = target: T1, human LILRB4 expressed on cells; test: FACS (Geo MFI) on normal human monocytes; panel assigned to monocytes by the order in legend paragraph 86
[20] = target: T1, human LILRB4 expressed on cells; test: cell-based or functional assay
[21] = target: T1, human LILRB4 expressed on cells; test: FACS (Geo MFI) on THP-1 cells; panel assigned to THP-1 by the order in legend paragraph 86

B1: H7K3 (antibody, V domains shown)
VH: EVQLVESGGGLVQPGGSLRLSCAASGFSLSSSYWISWVRQAPGKGLEWIGSIDSGSVGITYYATWVKGRFTISRDNSKNTLYLQMNSLRAEDTAVYYCARHGDNWALDLWGQGTLVTVSS
VL: DIQMTQSPSTLSASVGDRVTITCRASQSINSWLAWYQQKPGKAPKLLIYKASTLASGVPSRFSGSGSGTEFTLTISSLQPDDFATYYCQHGYIRGDLDNVFGGGTKVEIK
notes: Humanized from rabbit antibody B4-193; also called humanized anti-LILRB4 antibody; WT
[1]
  EC50: 1.42 nM
[2]
  EC50: 1.19 nM
[3]
  EC50: 0.557 nM
[4]
  EC50: 2.14 nM
[5]
  EC50: 0.734 nM
[6]
  EC50: 6.05 nM
[7]
  EC50: 1.19 nM
[8]
  EC50: 0.696 nM
[9]
  EC50: 1.33 nM
[10]
  EC50: 0.543 nM
[11]
  EC50: 0.65 nM
[12]
  EC50: 0.895 nM
[13]
  EC50: 3.81 nM
[14]
  EC50: 0.65 nM
[15]
  EC50: 0.883 nM
[16]
  EC50: 1.21 nM
[17]
  EC50: 1.72 nM
[18]
  EC50: 1.71 nM

B2: H7K3m5 (antibody, V domains shown)
VH: B1 VH
VL: B1 VL with N30S
notes: Full-length IgG; human IgG1 is used as its isotype control; Only variable regions are tied to the name; Wild type (fucosylated) form unless said otherwise; also called variant 9; K3m5 (N/S)
[9]
  EC50: 1.12 nM
[10]
  EC50: 0.415 nM
[19]
  EC50 (read off the curve): ~0.3 nM
[20]
  T-cell cytotoxicity against THP-1-GFP cells, mean EC50 (n=3): 0.208 nM
[21]
  EC50 (read off the curve): ~0.5 nM
